Key:
[1] = target: LOV1-C57M-SL-LOV2-C250A fusion protein (short linker) (UniProt Q8LPD9); assay: crystal structure; fusion protein pre-irradiated with blue light and reoxidised (FMN^·-Met/FMNox); 20% PEG 3350, 0.1 M BIS-TRIS pH 6.5, 0.1 M ammonium sulfate, 5 mg/mL
[2] = target: LOV2-C250A single domain of Phot1; assay: crystal structure; LOV2-C250A crystallized in the dark (FMNox)

Row | stoichiometry N [1] | stoichiometry N [2] | Substance
1 | 2 | – | LOV1-C57M-SL-LOV2-C250A fusion protein (short linker) (from UniProt Q8LPD9 17-125)
2 | – | 2 | LOV2-C250A single domain of Phot1 (domain or fragment)

Reference: article PMC12232321
